Earlier results, collected in patent publication US10888616B2 (Latitude Pharmaceuticals, Inc., priority 2015, dated 2021).

Columns and labels:
[1] = acidic solution (pH 2-4), within 24 hours at 37° C.

## Glucagon: single-chain polypeptide of 29 amino acid residues, sequence in FIG. 1 (SEQ ID NO: 1)
other
  solubility in pure water or alcohol: insoluble
pH 3 or lower
  gelling in water: will aggregate to form a gel within hours
Physiological pH (pH 4-8)
  solubility in water: insoluble
[1]
  glucagon broken down into degradation products: 5-70%
